Results from patent US20030103978A1 (Amgen, published 2003).

T1: human OPGbp[143-317] (human, UniProt O14788 143-317)
T1 sequence (looked up): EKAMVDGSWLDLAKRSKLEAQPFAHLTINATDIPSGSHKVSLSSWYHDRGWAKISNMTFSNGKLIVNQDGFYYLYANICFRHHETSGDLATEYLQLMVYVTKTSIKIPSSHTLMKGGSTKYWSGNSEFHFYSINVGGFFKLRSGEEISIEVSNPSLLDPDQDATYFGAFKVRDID

T2: FLAG-murine OPGbp[158-316]/DE (murine, UniProt O35235 158-316)
T2 construct: Produced in E. coli; also called FLAG-mouse OPGbp/DE; DE variant
T2 sequence: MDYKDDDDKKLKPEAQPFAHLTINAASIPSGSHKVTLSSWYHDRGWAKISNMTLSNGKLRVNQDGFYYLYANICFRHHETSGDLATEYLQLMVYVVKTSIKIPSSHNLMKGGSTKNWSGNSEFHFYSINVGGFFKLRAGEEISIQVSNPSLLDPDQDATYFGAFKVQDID


Columns and labels:
[1] = target: T1, human OPGbp[143-317]; test: cell-based or functional assay
[2] = target: T2, FLAG-murine OPGbp[158-316]/DE; test: EIA: plate coated with FLAG-murine OPGbp[158-316]/DE at 3 ug/ml, AT antibody in twofold steps 1.953-2000 ng/ml, goat anti-human IgG (Fc) conjugate, ABTS, absorbance at 405 nm
Method: (§1) After overnight incubation, the protein solutions were removed from the plate and 200 μl of 5% Chicken Serum (Gibco/BRL Cat# 16110-082) in PBST (PBS plus 0.05% Tween 20) was added to each well of the plate and plates were incubated at room temperature (RT) for 90 min with agitation. After incubation and blocking, plates were washed 4 times with 1×K-P wash solution in dH₂O (Cat#50-63-00, Kirkegaard & Perry Laboratories) and dried. […] Plates were incubated for three hours at room temperature with agitation, washed four times with 1×K-P wash solution and dried. Goat anti-human IgG (Fc) (Jackson ImmunoResearch, Cat# 109-036-098) was diluted 1:5000 in 5% Chicken Serum in PBST and 100 μl was added to each well. […] 100 μl of undiluted ABTS substrate (Kirkegaard & Perry; Cat# 50-66-00) was added to each well and the dish was incubated at room temperature until sufficient blue-green color developed. Color development was stopped by addition of 100 μl 1% SDS. Quantitation of color development was performed using a microtiter plate reader with detection at 405 nm.

[3] = target: T1, human OPGbp[143-317]; test: EIA: plate coated with human OPGbp[143-317] at 3 ug/ml, AT antibody in twofold steps 1.953-2000 ng/ml, goat anti-human IgG (Fc) conjugate, ABTS, absorbance at 405 nm
Method: as §1

[4] = target: T1, human OPGbp[143-317]; test: SPR (BIAcore), immobilized OPGbp[143-317]

Binder	koff [4] [s⁻¹]	further results
Fab “Y” (Fab, V domains shown) VH: EVQLVQSGAEVRKPGASVKVSCKASGYDFSNYAIHWVRQAPGQRLEWMGWINAGNGNTKFSQKFQGRITVTRDTAASTAYMELRSLRSEDTAVYYCARDSSNMVRGIIIAYYFDYWGQGTLVTVSS VL: EIVLTQSPATLSFSPGERATLSCRASQSVGSYLAWYQQRPGQAPRPLIYDATNRATGIPTRFSGSGSGTDFTLTISSLEPEDFATYYCQHRRTFGRGTKLEIKR		murine bone marrow assay, TRAP in solution (pNPP), IC50 [1]: 212 nM
“AT” antibody (antibody, human IgG1, V domains shown, Full-length antibody from CHO cells: Fab “AT” heavy chain variable region joined to human IgG1 CH1, hinge, CH2 and CH3; light chain of Fab “AT” (kappa); the mature antibodies are identical; also called “AT” Ab; “AT” Nb) VH: QVQLVQSGAEVRKPGASVKVSCKASGYDFSNYAIHWVRQAPGQRLEWMGWINAGNGNTKFSQKFQGRITVTRDTAASTAYMELRSLRSEDTAVYYCARDSSNMVRGIIIAYYFDYWGQGTLVTVSS VL: EIVMTQSPSSLSASVGDRVTITCRASQSISRYLNWYQLKPGKAPRLLIYGASSLQSGVPSRFSGSGSGAEFTLTISSLQPEDIATYYCQHTRAFGQGTKVEIKR		EC50 (read off the curve) [2]: ~0.02 µg/mL; EC50 (read off the curve) [3]: ~0.01 µg/mL
“AT” Fab S96A (Fab, V domains shown, The Fab carried a 6xHis tag. Its chain and terminus are not stated, so it is left out., His-tagged Fab) VH: QVQLVQSGAEVRKPGASVKVSCKASGYDFSNYAIHWVRQAPGQRLEWMGWINAGNGNTKFSQKFQGRITVTRDTAASTAYMELRSLRSEDTAVYYCARDASNMVRGIIIAYYFDYWGQGTLVTVSS VL: EIVMTQSPSSLSASVGDRVTITCRASQSISRYLNWYQLKPGKAPRLLIYGASSLQSGVPSRFSGSGSGAEFTLTISSLQPEDIATYYCQHTRAFGQGTKVEIKR	0.0072	
“AT” Fab D95A (Fab, V domains shown, The Fab carried a 6xHis tag. Its chain and terminus are not stated, so it is left out., His-tagged Fab) VH: QVQLVQSGAEVRKPGASVKVSCKASGYDFSNYAIHWVRQAPGQRLEWMGWINAGNGNTKFSQKFQGRITVTRDTAASTAYMELRSLRSEDTAVYYCARASSNMVRGIIIAYYFDYWGQGTLVTVSS VL: EIVMTQSPSSLSASVGDRVTITCRASQSISRYLNWYQLKPGKAPRLLIYGASSLQSGVPSRFSGSGSGAEFTLTISSLQPEDIATYYCQHTRAFGQGTKVEIKR		binding result [4]: no binding
“AT” Fab D110A (Fab, V domains shown, His-tagged Fab) VH: QVQLVQSGAEVRKPGASVKVSCKASGYDFSNYAIHWVRQAPGQRLEWMGWINAGNGNTKFSQKFQGRITVTRDTAASTAYMELRSLRSEDTAVYYCARDSSNMVRGIIIAYYFAYWGQGTLVTVSS VL: EIVMTQSPSSLSASVGDRVTITCRASQSISRYLNWYQLKPGKAPRLLIYGASSLQSGVPSRFSGSGSGAEFTLTISSLQPEDIATYYCQHTRAFGQGTKVEIKR	0.127	
“AT” Fab N98A (Fab, V domains shown, The Fab carried a 6xHis tag. Its chain and terminus are not stated, so it is left out., His-tagged Fab) VH: QVQLVQSGAEVRKPGASVKVSCKASGYDFSNYAIHWVRQAPGQRLEWMGWINAGNGNTKFSQKFQGRITVTRDTAASTAYMELRSLRSEDTAVYYCARDSSAMVRGIIIAYYFDYWGQGTLVTVSS VL: EIVMTQSPSSLSASVGDRVTITCRASQSISRYLNWYQLKPGKAPRLLIYGASSLQSGVPSRFSGSGSGAEFTLTISSLQPEDIATYYCQHTRAFGQGTKVEIKR	0.012	
“AT” Fab S97A (Fab, V domains shown, The Fab carried a 6xHis tag. Its chain and terminus are not stated, so it is left out., His-tagged Fab) VH: QVQLVQSGAEVRKPGASVKVSCKASGYDFSNYAIHWVRQAPGQRLEWMGWINAGNGNTKFSQKFQGRITVTRDTAASTAYMELRSLRSEDTAVYYCARDSANMVRGIIIAYYFDYWGQGTLVTVSS VL: EIVMTQSPSSLSASVGDRVTITCRASQSISRYLNWYQLKPGKAPRLLIYGASSLQSGVPSRFSGSGSGAEFTLTISSLQPEDIATYYCQHTRAFGQGTKVEIKR	0.0062	
“AT” Fab Y111A (Fab, V domains shown, His-tagged Fab) VH: QVQLVQSGAEVRKPGASVKVSCKASGYDFSNYAIHWVRQAPGQRLEWMGWINAGNGNTKFSQKFQGRITVTRDTAASTAYMELRSLRSEDTAVYYCARDSSNMVRGIIIAYYFDAWGQGTLVTVSS VL: EIVMTQSPSSLSASVGDRVTITCRASQSISRYLNWYQLKPGKAPRLLIYGASSLQSGVPSRFSGSGSGAEFTLTISSLQPEDIATYYCQHTRAFGQGTKVEIKR	0.414	
